Substrate: [N-]=[N+]=Nc1cc(O)ccc1C[C@H](N)C(=O)O
Assay: Tyrosine phenol-lyase catalyzed hydrolytic cleavage to ammonium pyruvate and 3-azidophenol
Type: biochemical
Settings: other: as substrate

B1: tyrosine phenol-lyase (Citrobacter freundii) (protein)
chain: MNYPAEPFRIKSVETVSMIPRDERLKKMQEAGYNTFLLNSKDIYIDLLTDSGTNAMSDKQWAGMMMGDEAYAGSENFYHLERTVQELFGFKHIVPTHQGRGAENLLSQLAIKPGQYVAGNMYFTTTRYHQEKNGAVFVDIVRDEAHDAGLNIAFKGDIDLKKLQKLIDEKGAENIAYICLAVTVNLAGGQPVSMANMRAVRELTEAHGIKVFYDATRCVENAYFIKEQEQGFENKSIAEIVHEMFSYADGCTMSGKKDCLVNIGGFLCMNDDEMFSSAKELVVVYEGMPSYGGLAGRDMEAMAIGLREAMQYEYIEHRVKQVRYLGDKLKAAGVPIVEPVGGHAVFLDARRFCEHLTQDEFPAQSLAASIYVETGVRSMERGIISAGRNNVTGEHHRPKLETVRLTIPRRVYTYAHMDVVADGIIKLYQHKEDIRGLKFIYEPKQLRFFTARFDYI
- Km: 1000 µM
